The target in data set [1] is T1, Cas1;Cas2 (Escherichia coli;Escherichia coli, UniProt Q46896;P45956 1-305;1-94, |).
T1 sequence 1: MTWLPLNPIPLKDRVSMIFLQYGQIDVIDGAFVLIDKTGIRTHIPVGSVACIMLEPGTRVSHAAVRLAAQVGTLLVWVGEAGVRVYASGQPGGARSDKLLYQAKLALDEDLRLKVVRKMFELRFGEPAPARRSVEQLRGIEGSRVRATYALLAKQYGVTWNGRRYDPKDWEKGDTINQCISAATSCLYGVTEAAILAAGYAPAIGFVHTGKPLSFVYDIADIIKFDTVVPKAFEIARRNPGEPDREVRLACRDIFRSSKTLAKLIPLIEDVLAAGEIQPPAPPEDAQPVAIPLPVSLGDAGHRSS
T1 sequence 2: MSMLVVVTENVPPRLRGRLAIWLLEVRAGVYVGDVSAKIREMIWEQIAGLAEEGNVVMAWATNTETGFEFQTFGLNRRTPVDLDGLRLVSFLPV
The data set can be described thus: EMSA; preannealed; 40 mM Tris-HCl pH 7.5, 50 mM NaCl, 10 mM MgCl2, 0.5 mM TCEP, 0.1 mg/ml BSA; EMSA (Fig. S9) 25 nM DNA, 2 uM Cas1-Cas2, 37 C 30 min; footprinting 0.2 uM DNA, 1.6. The settings on record: protein: recombinant;recombinant; tags: ;; chain copies: 4;2; label: 5'-32P on strand 1; 28-bp duplex, single 3' overhang 5 nt.

Data set [2] concerns the target T1, Cas1;Cas2. The data set is described as follows: exonuclease footprinting; RecJ with RecBC or RecBCD, 1 mM ATP; 33-nt product; 40 mM Tris-HCl pH 7.5, 50 mM NaCl, 10 mM MgCl2, 0.5 mM TCEP, 0.1 mg/ml BSA; EMSA (Fig. S9) 25 nM DNA, 2 uM Cas1-Cas2, 37 C 30 min; footprinting 0.2 uM DNA, 1.6. The settings on record: protein: recombinant;recombinant; tags: ;; chain copies: 4;2; label: 3'-FAM on strand 1; fork; 23-bp duplex; extended 5' arm annealed to strand 3 as 15-bp blunt duplex.

Data set [3] has as its target T1, Cas1;Cas2. The data set can be described thus: EMSA; strands added separately; 40 mM Tris-HCl pH 7.5, 50 mM NaCl, 10 mM MgCl2, 0.5 mM TCEP, 0.1 mg/ml BSA; EMSA (Fig. S9) 25 nM DNA, 2 uM Cas1-Cas2, 37 C 30 min; footprinting 0.2 uM DNA, 1.6. The settings on record: protein: recombinant;recombinant, tags: ;, chain copies: 4;2, label: 5'-32P on strand 1, 33-bp duplex. On the technique in general: A gel shift assay detects complexes by their altered migration in electrophoresis.

Data set [4] addresses T1, Cas1;Cas2. The data set can be described thus: EMSA; preannealed; longer overhang stimulated binding; 40 mM Tris-HCl pH 7.5, 50 mM NaCl, 10 mM MgCl2, 0.5 mM TCEP, 0.1 mg/ml BSA; EMSA (Fig. S9) 25 nM DNA, 2 uM Cas1-Cas2, 37 C 30 min; footprinting 0.2 uM DNA, 1.6. To be noted: protein: recombinant;recombinant, tags: ;, chain copies: 4;2, label: 5'-32P on strand 1, 28-bp duplex.

Data set [5] has as its target T1, Cas1;Cas2. The data set can be described thus: EMSA; preannealed; reference for substrate 10; 40 mM Tris-HCl pH 7.5, 50 mM NaCl, 10 mM MgCl2, 0.5 mM TCEP, 0.1 mg/ml BSA; EMSA (Fig. S9) 25 nM DNA, 2 uM Cas1-Cas2, 37 C 30 min; footprinting 0.2 uM DNA, 1.6. To be noted: protein: recombinant;recombinant; tags: ;; chain copies: 4;2; label: 5'-32P on strand 1; 23-bp duplex, 3' overhang 5 nt on each end.

B1: substrate 3 (dsDNA)
DNA 1: ATTTACTACTCGTTCTGGTGTTTCTCGT
DNA 2: ACGAGAAACACCAGAACGAGTAGTAAATTGGGC
Turning to B1, the binding result in the data set with Cas1;Cas2 [1] was “binds”.

B2: double fork with 15-bp blunt end (Fig. 4B, S7) (dsDNA)
DNA 1: CCGCCTTAACCGGTCAACCTAAACATTTACCGCGCGATCGGGTGTTTGGTGA
DNA 2: CACAAAAACACCCGATCGCGCGGTAAATTGGGCTTGG
DNA 3: GACCGGTTAAGGCGG
Turning to B2, the binding result with Cas1;Cas2 [2] is on record as “binds”.

B3: substrate 10 (33/37) (dsDNA)
DNA 1: GCCCAATTTACTACTCGTTCTGGTGTTTCTCGT
DNA 2: ACGAGAAACACCAGAACGAGTAGTAAATTGGGCTTGA
On to B3, for which, in the data set with Cas1;Cas2 [3] (single 3' overhang 4 nt with PAM), the binding signal is 18 fold more than preannealed.

B4: substrate 9 (33/35) (dsDNA)
DNA 1: B3 DNA 1
DNA 2: ACGAGAAACACCAGAACGAGTAGTAAATTGGGCTT
In the case of B4, the binding signal with Cas1;Cas2 [3] (single 3' overhang 2 nt with PAM) is 5 fold more than preannealed.

B5: substrate 5 (dsDNA)
DNA 1: ATTTACTACTCGTTCTGGTGTTTCTCGT
DNA 2: B3 DNA 2
Take B5: the binding result in the data set with Cas1;Cas2 [4] (single 3' overhang 9 nt with PAM) was “binds”.

B6: substrate 2 (dsDNA)
DNA 1: ATTTACTACTCGTTCTGGTGTTTCTCGT
DNA 2: AAACACCAGAACGAGTAGTAAATTGGGC
Take B6: in the data set with Cas1;Cas2 [5], the binding result is listed as “binds”.

B7: substrate 4 (dsDNA)
DNA 1: ATTTACTACTCGTTCTGGTGTTTCTCGT
DNA 2: B4 DNA 2
Take B7: in the data set with Cas1;Cas2 [4] (single 3' overhang 7 nt with PAM), the binding result is reported as “binds”.

Source of the values: article PMC9699676, “Host nucleases generate prespacers for primed adaptation in the E. coli type I-E CRISPR-Cas system”.
